According to paper PMC8319186, “Mitochondrial adaptor TRAK2 activates and functionally links opposing kinesin and dynein motors” (Nature Communications, 2021):
Blank lines part the entries; values can stand above or below the molecule they belong to.

Legend:
[1] = target: dynein heavy chain (endogenous, COS-7); experiment: co-immunoprecipitation (Halo antibody IP, western blot quantification); conditions: extracts from COS-7 cells transfected with Myc-KIF5B and Halo-tagged constructs; mean ± s.d. from three independent experiments; parent: est. 0.21; read off a plot
Myc-KIF5C-Halo = target: T1, Myc-KIF5C-Halo (mouse, UniProt P28738 1-956); experiment: cell-based or functional assay
T1 sequence (looked up): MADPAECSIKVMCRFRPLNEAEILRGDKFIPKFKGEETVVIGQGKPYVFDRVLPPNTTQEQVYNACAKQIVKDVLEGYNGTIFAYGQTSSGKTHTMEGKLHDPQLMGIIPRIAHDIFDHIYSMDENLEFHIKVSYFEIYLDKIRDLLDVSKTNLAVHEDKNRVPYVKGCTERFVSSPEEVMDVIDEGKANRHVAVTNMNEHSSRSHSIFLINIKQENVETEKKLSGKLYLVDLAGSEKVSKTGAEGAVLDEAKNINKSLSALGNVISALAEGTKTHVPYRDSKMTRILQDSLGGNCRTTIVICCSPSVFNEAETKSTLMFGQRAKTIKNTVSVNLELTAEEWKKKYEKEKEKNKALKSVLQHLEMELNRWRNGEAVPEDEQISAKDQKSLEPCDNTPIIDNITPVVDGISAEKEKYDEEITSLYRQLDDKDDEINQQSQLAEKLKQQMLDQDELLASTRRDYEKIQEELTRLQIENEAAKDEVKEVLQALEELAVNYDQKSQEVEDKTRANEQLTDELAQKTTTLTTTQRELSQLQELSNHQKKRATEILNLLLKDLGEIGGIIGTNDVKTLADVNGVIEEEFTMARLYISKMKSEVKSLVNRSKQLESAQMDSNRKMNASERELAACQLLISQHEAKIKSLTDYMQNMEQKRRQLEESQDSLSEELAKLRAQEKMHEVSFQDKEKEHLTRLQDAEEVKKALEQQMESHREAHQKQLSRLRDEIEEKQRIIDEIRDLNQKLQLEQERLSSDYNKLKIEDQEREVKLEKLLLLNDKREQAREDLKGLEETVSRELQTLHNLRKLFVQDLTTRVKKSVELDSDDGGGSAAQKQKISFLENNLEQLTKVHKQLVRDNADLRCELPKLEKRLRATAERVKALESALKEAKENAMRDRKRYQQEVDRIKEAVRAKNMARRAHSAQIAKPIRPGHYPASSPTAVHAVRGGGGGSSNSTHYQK

response [1]: 0.08
Molecule: Halo-TRAK2 (from UniProt O60296) A129V; A130V

response [1]: 0.07
Molecule: Halo-TRAK2 (from UniProt O60296) I132D

frequency of KIF5C runs along dynamic microtubules (single-molecule TIRF of COS-7 lysate) with against without exogenous HA-TRAK2 (Myc-KIF5C-Halo): > 3 fold
B1: HA-TRAK2 (natural protein, UniProt O60296 1-914, looked up)
chain: MSQSQNAIFTSPTGEENLMNSNHRDSESITDVCSNEDLPEVELVSLLEEQLPQYRLKVDTLFLYENQDWTQSPHQRQHASDALSPVLAEETFRYMILGTDRVEQMTKTYNDIDMVTHLLAERDRDLELAARIGQALLKRNHVLSEQNESLEEQLGQAFDQVNQLQHELCKKDELLRIVSIASEESETDSSCSTPLRFNESFSLSQGLLQLEMLQEKLKELEEENMALRSKACHIKTETVTYEEKEQQLVSDCVKELRETNAQMSRMTEELSGKSDELIRYQEELSSLLSQIVDLQHKLKEHVIEKEELKLHLQASKDAQRQLTMELHELQDRNMECLGMLHESQEEIKELRSRSGPTAHLYFSQSYGAFTGESLAAEIEGTMRKKLSLDEESSLFKQKAQQKRVFDTVRIANDTRGRSISFPALLPIPGSNRSSVIMTAKPFESGLQQTEDKSLLNQGSSSEEVAGSSQKMGQPGPSGDSDLATALHRLSLRRQNYLSEKQFFAEEWQRKIQVLADQKEGVSGCVTPTESLASLCTTQSEITDLSSASCLRGFMPEKLQIVKPLEGSQTLYHWQQLAQPNLGTILDPRPGVITKGFTQLPGDAIYHISDLEEDEEEGITFQVQQPLEVEEKLSTSKPVTGIFLPPITSAGGPVTVATANPGKCLSCTNSTFTFTTCRILHPSDITQVTPSSGFPSLSCGSSGSSSSNTAVNSPALSYRLSIGESITNRRDSTTTFSSTMSLAKLLQERGISAKVYHSPISENPLQPLPKSLAIPSTPPNSPSHSPCPSPLPFEPRVHLSENFLASRPAETFLQEMYGLRPSRNPPDVGQLKMNLVDRLKRLGIARVVKNPGAQENGRCQEAEIGPQKPDSAVYLNSGSSLLGGLRRNQSLPVIMGSFAAPVCTSSPKMGVLKED
